We go through 3 molecules from PMC10018365, “Cryo-EM structure of the fully assembled Elongator complex” (Nucleic Acids Research, 2023).

What all share (conditions): both partners purified
The target of assay [1] is T1, Mus musculus Elp123 subcomplex (Mus musculus, UniProt Q7TT37 1-1333; Q91WG4 1-831; Q9CZX0 1-547).
T1 construct: Elp1, mouse, ORF; Elp2, mouse, ORF; Elp3, mouse, ORF; Gel filtration at about 610 kDa; also called MmElp123; mouse Elp123; source: Super Sf9-1 insect cells (baculovirus, biGBac), purified (StrepTrap, heparin, Superose 6); not shown: Twin-Strep-tag, C-terminal, kept; copies: 2 + 2 + 2
Put plainly: cryo-EM structure; MmElongator reconstituted from purified MmElp123 and MmElp456 and re-purified by gel filtration, 5.9 Å. (SEC sorts molecules by how far they enter the pores of the column.)

Assay [2] concerns the target T2, Homo sapiens Elp123 subcomplex with Elp1 Δ1132–1224 (Homo sapiens, UniProt O95163 1-1332; Q6IA86 1-826; Q9H9T3 1-547, Δ1132–1224).
T2 construct: Elp2, human, ORF; Elp3, human, ORF; source: Sf9-3 insect cells (baculovirus, biGBac), purified (StrepTrap, heparin, Superose 6); not shown: Twin-Strep-tag, C-terminal, kept; copies: 2 + 2 + 2
Kind of assay: pull-down; 10 μg bait, 20 μg prey; Elp123 on StrepTactin Sepharose by Twin-Strep-tagged Elp3, or Elp456 on anti-DYKDDDDK resin by FLAG-tagged Elp6; 30-60 min at 4°C; washes in 20 mM HEPES pH 7.5, 100 mM NaCl, 1 mM DTT, 0.05% Tween 20; SDS-PAGE with Coomassie or silver stain; also with ATP and bulk tRNA.

The target in assay [3] is T3, Homo sapiens Elp123 subcomplex, wild type (Homo sapiens, UniProt O95163 1-1332; Q6IA86 1-826; Q9H9T3 1-547).
T3 construct: Elp1, human, ORF; Elp2, human, ORF; Elp3, human, ORF; also called human Elp123; source: Sf9-3 insect cells (baculovirus, biGBac), purified (StrepTrap, heparin, Superose 6); not shown: Twin-Strep-tag, C-terminal, kept; copies: 2 + 2 + 2
Kind of assay: SEC; Elp123 incubated with the respective Elp456 for 30 min at 25°C at 1:2 weight ratio, then Superose 6 Increase 10/300 GL in 20 mM HEPES pH 7.5, 100 mM NaCl, 5 mM DTT.

For assay [4], the target named is T4, Saccharomyces cerevisiae Elp1 (Saccharomyces cerevisiae, UniProt Q06706 1-1349).
T4 construct: Elp1, S. cerevisiae, full-length ORF; also called ScElp1; source: S. cerevisiae DS1-2b, overexpressed, purified within ScElongator
T4 sequence (looked up): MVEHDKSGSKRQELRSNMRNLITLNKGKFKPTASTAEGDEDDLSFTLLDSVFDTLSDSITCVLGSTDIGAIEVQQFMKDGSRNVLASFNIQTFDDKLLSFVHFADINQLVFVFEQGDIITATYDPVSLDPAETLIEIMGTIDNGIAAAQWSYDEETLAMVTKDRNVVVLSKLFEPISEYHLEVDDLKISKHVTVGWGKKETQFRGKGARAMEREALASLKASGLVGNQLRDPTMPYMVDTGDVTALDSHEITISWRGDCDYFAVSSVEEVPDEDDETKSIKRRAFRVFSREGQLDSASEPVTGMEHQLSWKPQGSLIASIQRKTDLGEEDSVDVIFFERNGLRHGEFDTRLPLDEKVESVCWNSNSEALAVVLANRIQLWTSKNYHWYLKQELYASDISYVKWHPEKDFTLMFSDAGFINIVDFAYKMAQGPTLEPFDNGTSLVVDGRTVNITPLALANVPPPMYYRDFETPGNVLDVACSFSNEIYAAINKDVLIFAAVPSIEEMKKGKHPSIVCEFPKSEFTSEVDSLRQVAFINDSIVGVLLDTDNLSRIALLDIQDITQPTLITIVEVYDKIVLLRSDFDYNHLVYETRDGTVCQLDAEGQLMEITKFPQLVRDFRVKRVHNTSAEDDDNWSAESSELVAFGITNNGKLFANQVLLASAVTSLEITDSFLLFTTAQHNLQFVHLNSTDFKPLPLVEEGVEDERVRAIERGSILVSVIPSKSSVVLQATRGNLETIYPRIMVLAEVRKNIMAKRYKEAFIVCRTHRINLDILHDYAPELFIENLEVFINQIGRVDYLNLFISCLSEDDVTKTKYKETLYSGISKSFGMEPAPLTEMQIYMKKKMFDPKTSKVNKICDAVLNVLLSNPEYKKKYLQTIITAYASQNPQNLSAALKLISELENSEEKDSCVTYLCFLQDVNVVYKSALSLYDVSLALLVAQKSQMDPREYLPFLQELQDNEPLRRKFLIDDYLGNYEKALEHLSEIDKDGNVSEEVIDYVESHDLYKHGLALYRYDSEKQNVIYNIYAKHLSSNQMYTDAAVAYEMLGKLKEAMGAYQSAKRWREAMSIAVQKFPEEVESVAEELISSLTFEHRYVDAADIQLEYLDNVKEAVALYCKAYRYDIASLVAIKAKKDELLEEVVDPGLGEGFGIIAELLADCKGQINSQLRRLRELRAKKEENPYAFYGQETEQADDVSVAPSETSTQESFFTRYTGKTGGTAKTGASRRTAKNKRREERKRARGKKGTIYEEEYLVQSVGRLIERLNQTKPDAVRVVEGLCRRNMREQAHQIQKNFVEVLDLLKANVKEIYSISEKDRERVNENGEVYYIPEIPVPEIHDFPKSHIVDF
Kind of assay: cryo-EM structure; ScElp123 with yeast tRNA Ala UGC (3-5 molar excess, 15 min on ice), 3.96 Å.

For assay [5], the target named is T5, Saccharomyces cerevisiae Elp2 (Saccharomyces cerevisiae, UniProt P42935 1-788).
T5 construct: Elp2, S. cerevisiae, full-length ORF; also called ScElp2; source: S. cerevisiae DS1-2b, overexpressed, purified within ScElongator
T5 sequence (looked up): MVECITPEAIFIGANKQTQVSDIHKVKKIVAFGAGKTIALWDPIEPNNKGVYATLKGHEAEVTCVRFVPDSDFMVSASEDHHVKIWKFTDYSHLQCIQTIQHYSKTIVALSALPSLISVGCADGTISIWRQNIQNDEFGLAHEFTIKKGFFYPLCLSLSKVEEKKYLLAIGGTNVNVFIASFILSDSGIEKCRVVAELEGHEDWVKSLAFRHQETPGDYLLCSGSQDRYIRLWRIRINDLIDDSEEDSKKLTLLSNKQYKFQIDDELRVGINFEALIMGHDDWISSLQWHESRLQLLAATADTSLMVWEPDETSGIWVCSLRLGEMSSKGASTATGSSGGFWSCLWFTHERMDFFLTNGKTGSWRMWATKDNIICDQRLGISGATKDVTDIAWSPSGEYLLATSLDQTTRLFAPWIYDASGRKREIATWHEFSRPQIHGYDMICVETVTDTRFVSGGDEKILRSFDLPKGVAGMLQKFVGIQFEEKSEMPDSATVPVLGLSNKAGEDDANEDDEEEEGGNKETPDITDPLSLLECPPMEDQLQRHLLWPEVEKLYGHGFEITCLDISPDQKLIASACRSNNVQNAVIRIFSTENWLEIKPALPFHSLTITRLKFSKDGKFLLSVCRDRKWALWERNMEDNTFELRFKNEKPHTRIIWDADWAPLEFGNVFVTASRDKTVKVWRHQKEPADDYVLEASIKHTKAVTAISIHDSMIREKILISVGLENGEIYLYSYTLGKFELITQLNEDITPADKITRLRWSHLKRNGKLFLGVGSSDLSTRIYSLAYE
Described as above.

T1 sequence (Q7TT37 whole entry, chain 1 of 3): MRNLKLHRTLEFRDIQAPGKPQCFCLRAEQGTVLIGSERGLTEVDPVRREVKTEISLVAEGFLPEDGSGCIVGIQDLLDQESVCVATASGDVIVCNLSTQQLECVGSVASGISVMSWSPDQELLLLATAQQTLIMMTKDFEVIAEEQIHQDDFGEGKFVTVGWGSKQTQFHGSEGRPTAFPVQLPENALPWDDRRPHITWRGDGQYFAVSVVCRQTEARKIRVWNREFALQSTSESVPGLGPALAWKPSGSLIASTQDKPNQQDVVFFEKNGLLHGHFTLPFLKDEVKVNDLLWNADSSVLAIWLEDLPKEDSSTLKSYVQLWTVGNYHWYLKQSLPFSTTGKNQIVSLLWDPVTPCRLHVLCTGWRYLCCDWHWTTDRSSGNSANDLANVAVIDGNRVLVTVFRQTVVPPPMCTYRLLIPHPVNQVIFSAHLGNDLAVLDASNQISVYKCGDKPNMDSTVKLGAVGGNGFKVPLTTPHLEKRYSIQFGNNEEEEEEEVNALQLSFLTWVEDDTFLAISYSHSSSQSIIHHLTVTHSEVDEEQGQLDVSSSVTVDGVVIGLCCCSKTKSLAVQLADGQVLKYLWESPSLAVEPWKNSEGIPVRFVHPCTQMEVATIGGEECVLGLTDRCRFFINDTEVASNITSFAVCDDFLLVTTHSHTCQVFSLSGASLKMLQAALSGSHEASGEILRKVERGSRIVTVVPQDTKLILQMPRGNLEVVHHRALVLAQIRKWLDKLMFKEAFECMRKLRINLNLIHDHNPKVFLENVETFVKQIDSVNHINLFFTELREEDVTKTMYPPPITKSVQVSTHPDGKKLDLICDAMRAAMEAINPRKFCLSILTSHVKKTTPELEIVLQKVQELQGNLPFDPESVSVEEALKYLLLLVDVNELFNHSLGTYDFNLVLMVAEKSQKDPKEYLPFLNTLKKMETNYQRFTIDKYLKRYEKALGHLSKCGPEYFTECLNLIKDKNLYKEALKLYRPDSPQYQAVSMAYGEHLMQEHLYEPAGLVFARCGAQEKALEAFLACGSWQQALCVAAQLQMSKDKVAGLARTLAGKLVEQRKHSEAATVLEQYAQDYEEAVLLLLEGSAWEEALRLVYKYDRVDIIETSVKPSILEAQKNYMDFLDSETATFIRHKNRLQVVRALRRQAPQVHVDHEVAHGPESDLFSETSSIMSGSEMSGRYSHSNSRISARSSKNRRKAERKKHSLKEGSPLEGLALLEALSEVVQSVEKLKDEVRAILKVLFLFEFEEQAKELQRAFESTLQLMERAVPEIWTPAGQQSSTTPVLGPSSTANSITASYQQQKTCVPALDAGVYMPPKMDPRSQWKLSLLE
T1 sequence (Q91WG4 whole entry, chain 2 of 3): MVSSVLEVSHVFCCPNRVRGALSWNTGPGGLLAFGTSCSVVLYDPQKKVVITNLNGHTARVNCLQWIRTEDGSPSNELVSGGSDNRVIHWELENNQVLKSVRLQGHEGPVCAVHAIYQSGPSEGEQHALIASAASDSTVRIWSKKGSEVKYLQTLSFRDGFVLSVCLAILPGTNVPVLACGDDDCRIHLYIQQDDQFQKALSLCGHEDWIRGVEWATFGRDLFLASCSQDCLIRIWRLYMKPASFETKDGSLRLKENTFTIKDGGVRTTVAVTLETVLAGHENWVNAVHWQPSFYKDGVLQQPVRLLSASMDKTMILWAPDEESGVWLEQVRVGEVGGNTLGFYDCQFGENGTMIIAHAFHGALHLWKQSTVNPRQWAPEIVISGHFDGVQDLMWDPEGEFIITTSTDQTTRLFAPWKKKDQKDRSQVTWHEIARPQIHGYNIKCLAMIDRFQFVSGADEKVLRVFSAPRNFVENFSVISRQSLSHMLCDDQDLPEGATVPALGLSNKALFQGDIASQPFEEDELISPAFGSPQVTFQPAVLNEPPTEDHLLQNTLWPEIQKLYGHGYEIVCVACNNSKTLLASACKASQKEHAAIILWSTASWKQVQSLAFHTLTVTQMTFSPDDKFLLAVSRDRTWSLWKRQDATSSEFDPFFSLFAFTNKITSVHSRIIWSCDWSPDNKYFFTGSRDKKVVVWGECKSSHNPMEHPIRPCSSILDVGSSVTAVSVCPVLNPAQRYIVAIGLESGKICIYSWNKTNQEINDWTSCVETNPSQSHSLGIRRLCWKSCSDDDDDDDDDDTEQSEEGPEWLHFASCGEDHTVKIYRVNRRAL
T1 sequence (Q9CZX0 whole entry, chain 3 of 3): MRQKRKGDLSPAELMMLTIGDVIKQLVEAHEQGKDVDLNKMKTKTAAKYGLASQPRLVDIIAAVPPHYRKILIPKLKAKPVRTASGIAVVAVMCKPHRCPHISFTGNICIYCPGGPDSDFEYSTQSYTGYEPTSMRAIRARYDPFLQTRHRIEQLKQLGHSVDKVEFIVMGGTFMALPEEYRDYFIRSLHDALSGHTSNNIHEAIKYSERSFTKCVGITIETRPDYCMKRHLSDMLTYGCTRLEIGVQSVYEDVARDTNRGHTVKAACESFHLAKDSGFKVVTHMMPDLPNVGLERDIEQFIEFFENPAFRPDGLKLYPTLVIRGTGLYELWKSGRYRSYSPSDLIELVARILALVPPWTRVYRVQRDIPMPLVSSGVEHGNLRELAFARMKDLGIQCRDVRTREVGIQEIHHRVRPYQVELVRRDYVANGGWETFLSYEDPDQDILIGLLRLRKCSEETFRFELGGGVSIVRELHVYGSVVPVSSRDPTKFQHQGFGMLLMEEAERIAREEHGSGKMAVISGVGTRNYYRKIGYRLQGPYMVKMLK

B1: Mus musculus Elp456 subcomplex (complex)
chain 1: MAAADTCGAGTLSSRSVASEAGQGGTSSFQRKGKASGGPGGGPRLLSIAGTRPSVRNGQLLVSTGLPALDQLLGGGLAVGTLLLIEEDKYNIYSPLLFKYFMAEGIINGHTLLVASAKENPAKILQELPAPLLDDNSKKELEDVHSAKTPEPNVNMKIAWRYQLQPKMEVGPVSSSRFGHYYDLSKRIPWELLQSSKWHGFFLPEHISPDLKGESCFLSCGYMRLLEFIQKSVYAEGFDGANPQKKQKNILRIGIQNLGSPLWGDDICCKENCDNNHRLTKFLYILRGLLRSSLSACIITMPAHLVQNKSITTRVRNLSDTVVGLESFIGSERETNPLYKDYHGLIHIRKIPRLNNLTCDESDVKDLAFKLKRKLFTIERLHLPPDLSDTVGRSSKQDLAASTARLGAGCSSMAEGKKHLDF
chain 2: MLDSLLAIGGLVLLRDSVEWEGRSLLKALIKKSALRGEQVHVLGCEVSEEEFREGFDSDVNSRLVYHDLFRDPLNWSKPGEAVPEGPLKALRSMCKRTDHGSVTIALDSLSWLLCHIPCVTLCQALHALSQQNGDPGDNSLVEQVRVLGLLHEELHGPGSMGALNTLAHTEVTLSGKVDQTSASILCRRPQQRATYQTWWFSVLPDFSLTLHEGLPLRSELHPDHHTTQVDPTAHLTFNLHLSKKEREARDSLTLPFQFSSEKQKALLHPVPSRTTGHIFYEPDAFDDVDPEDPDDDLDI
chain 3: MFPELNNLLSTTPDKTEQGTLTLLCDAKTDGSFLVHHFLSFYLKANCKVCFVALVQSFSHYNIVGQKLGVSLTAARDRGQLVFLEGLKSSVEVLFHSQDEPHPLQFLREAGTGNLQSLYTFIQDTLKPADSEESPWKYPVLLVDNLSVLLSLGVGAVAVLDFMQYCRATVCCELKGNVVALVHDTEGATDEGNDTLLNGLSHQSHLILRAEGLATGFCKDVHGQLSILWRRPSRSTAQRAQSLTYQYKIQDKNVSFFAKGMSPAVL
notes: Elp4, mouse, ORF; Elp5, mouse, ORF; Elp6, mouse, ORF; Gel filtration at about 220 kDa; also called MmElp456; mouse Elp456; source: Hi-5 insect cells (baculovirus, biGBac), purified (IgG Sepharose with TEV elution, Superose 6); not shown: FLAG, C-terminal, kept; Protein A, C-terminal, cleaved; copies: 2 + 2 + 2
As usually defined, the stoichiometry N is a count of units in the complex or per binding partner. Consider B1, for which the “stoichiometry N” value in assay [1] was determined as 1.

B2: Homo sapiens Elp456 subcomplex, wild type (complex)
chain 1: MAAVATCGSVAASTGSAVATASKSNVTSFQRRGPRASVTNDSGPRLVSIAGTRPSVRNGQLLVSTGLPALDQLLGGGLAVGTVLLIEEDKYNIYSPLLFKYFLAEGIVNGHTLLVASAKEDPANILQELPAPLLDDKCKKEFDEDVYNHKTPESNIKMKIAWRYQLLPKMEIGPVSSSRFGHYYDASKRMPQELIEASNWHGFFLPEKISSTLKVEPCSLTPGYTKLLQFIQNIIYEEGFDGSNPQKKQRNILRIGIQNLGSPLWGDDICCAENGGNSHSLTKFLYVLRGLLRTSLSACIITMPTHLIQNKAIIARVTTLSDVVVGLESFIGSERETNPLYKDYHGLIHIRQIPRLNNLICDESDVKDLAFKLKRKLFTIERLHLPPDLSDTVSRSSKMDLAESAKRLGPGCGMMAGGKKHLDF
chain 2: MLDSLLALGGLVLLRDSVEWEGRSLLKALVKKSALCGEQVHILGCEVSEEEFREGFDSDINNRLVYHDFFRDPLNWSKTEEAFPGGPLGALRAMCKRTDPVPVTIALDSLSWLLLRLPCTTLCQVLHAVSHQDSCPGDSSSVGKVSVLGLLHEELHGPGPVGALSSLAQTEVTLGGTMGQASAHILCRRPRQRPTDQTQWFSILPDFSLDLQEGPSVESQPYSDPHIPPVDPTTHLTFNLHLSKKEREARDSLILPFQFSSEKQQALLRPRPGQATSHIFYEPDAYDDLDQEDPDDDLDI
chain 3: MFVELNNLLNTTPDRAEQGKLTLLCDAKTDGSFLVHHFLSFYLKANCKVCFVALIQSFSHYSIVGQKLGVSLTMARERGQLVFLEGLKSAVDVVFQAQKEPHPLQFLREANAGNLKPLFEFVREALKPVDSGEARWTYPVLLVDDLSVLLSLGMGAVAVLDFIHYCRATVCWELKGNMVVLVHDSGDAEDEENDILLNGLSHQSHLILRAEGLATGFCRDVHGQLRILWRRPSQPAVHRDQSFTYQYKIQDKSVSFFAKGMSPAVL
notes: Elp4, human, ORF; Elp5, human, ORF; Elp6, human, ORF; also called human Elp456; source: Hi-5 insect cells (baculovirus, biGBac), purified (IgG Sepharose with TEV elution, Superose 6); not shown: FLAG, C-terminal, kept; Protein A, C-terminal, cleaved; copies: 2 + 2 + 2
For B2, the binding result in assay [2] and in assay [3] was “binds” throughout.

B3: Saccharomyces cerevisiae Elp3 (enzyme, UniProt Q02908 1-557, looked up)
chain: MARHGKGPKTNKKKLAPEKERFIQCCADITLELTDSLTSGTTREINLNGLITKYSKKYKLKQQPRLTDIINSIPDQYKKYLLPKLKAKPVRTASGIAVVAVMCKPHRCPHIAYTGNICVYCPGGPDSDFEYSTQSYTGYEPTSMRAIRARYDPYEQARGRVEQLKQLGHSIDKVEYVLMGGTFMSLPKEYREDFIVKLHNALSGFNGNDIDEAILYSQQSLTKCVGITIETRPDYCTQTHLDDMLKYGCTRLEIGVQSLYEDVARDTNRGHTVRSVCETFAVSKDAGYKVVSHMMPDLPNVGMERDIEQFKEYFENPDFRTDGLKIYPTLVIRGTGLYELWKTGRYKSYSANALVDLVARILALVPPWTRIYRVQRDIPMPLVTSGVDNGNLRELALARMKDLGTTCRDVRTREVGIQEVHHKVQPDQVELIRRDYYANGGWETFLSYEDPKKDILIGLLRLRKASKKYTYRKEFTSQRTSIVRELHVYGSVVPLHSRDPRKFQHQGFGTLLMEEAERIAKEEHGSEKISVISGVGVRNYYGKLGYELDGPYMSKRI
notes: Elp3, S. cerevisiae, full-length ORF; also called ScElp3; source: S. cerevisiae DS1-2b, overexpressed, purified within ScElongator; not shown: Twin-Strep-tag, C-terminal, kept
For the molecule B3, the binding result in assay [4] and in assay [5] was “binds” each time.
